Assay results as given in patent CN114736293A.

Molecular target: SARS-CoV-2 S蛋白(spike protein)，展示于假病毒表面 (SARS-CoV-2) (UniProt P0DTC2)
Experiment: cell-based or functional assay

For “自组装铁蛋白融合纳米抗体Ferritin-H11-D4(家蚕杆状病毒表达系统表达)”, the IC50(假病毒中和试验) was 2.19 nM, the 中和活性，相对大肠杆菌表达的铁蛋白融合蛋白的倍数 was 20 fold and the 对假病毒的中和活性，相对单独表达的纳米抗体H11-D4的倍数 was 8 fold.
